In patent US20210284734A1 (SYMPHOGEN A S, published 2021):
Substitutions are numbered along the chain they refer to. One block for each binder: values may come before it.

Key:
Assay in all cases: SPR, Fab on captured PD-1-Fc
[1] = target: T1, human PD-1 ECD-Fc chimeric construct 19 (human, UniProt Q15116 21-170)
T1 construct: not shown: human IgG1 Fc, residues P101-K330
T1 chain: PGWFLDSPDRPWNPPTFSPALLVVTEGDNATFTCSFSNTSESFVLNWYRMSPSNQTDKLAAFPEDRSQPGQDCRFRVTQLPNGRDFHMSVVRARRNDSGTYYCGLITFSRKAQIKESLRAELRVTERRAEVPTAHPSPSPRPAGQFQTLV

[2] = target: T2, human PD-1 ECD-Fc chimeric construct 16 (human, UniProt Q15116 21-170)
T2 construct: not shown: human IgG1 Fc, residues P101-K330
T2 chain: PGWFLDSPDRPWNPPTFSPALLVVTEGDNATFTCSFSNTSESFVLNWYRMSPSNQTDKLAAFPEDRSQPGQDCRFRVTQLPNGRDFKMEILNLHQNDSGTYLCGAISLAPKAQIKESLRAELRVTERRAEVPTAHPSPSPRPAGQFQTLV

[3] = target: T3, human PD-1 ECD-Fc chimeric construct 8 (human, UniProt Q15116 21-170)
T3 construct: not shown: human IgG1 Fc, residues P101-K330
T3 chain: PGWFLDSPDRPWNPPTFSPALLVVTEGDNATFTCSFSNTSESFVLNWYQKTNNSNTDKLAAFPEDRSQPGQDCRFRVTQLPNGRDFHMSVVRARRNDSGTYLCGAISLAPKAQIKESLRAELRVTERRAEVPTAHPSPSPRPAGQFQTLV

[4] = target: T4, human PD-1 ECD-Fc chimeric construct 6 (human, UniProt Q15116 21-170)
T4 construct: not shown: human IgG1 Fc, residues P101-K330
T4 chain: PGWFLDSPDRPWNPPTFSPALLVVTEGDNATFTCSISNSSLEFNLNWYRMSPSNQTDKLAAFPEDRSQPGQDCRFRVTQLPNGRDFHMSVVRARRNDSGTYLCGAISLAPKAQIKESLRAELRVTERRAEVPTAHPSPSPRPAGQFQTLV

[5] = target: T5, human PD-1 ECD-Fc chimeric construct 1 (human, UniProt Q15116 21-170)
T5 construct: not shown: human IgG1 Fc, residues P101-K330

[6] = target: T6, human PD-1 ECD-Fc chimeric construct 23 (human, UniProt Q15116 21-170)
T6 construct: not shown: human IgG1 Fc, residues P101-K330

[7] = target: T7, human PD-1 ECD-Fc chimeric construct 12 (human, UniProt Q15116 21-170)
T7 construct: not shown: human IgG1 Fc, residues P101-K330
T7 chain: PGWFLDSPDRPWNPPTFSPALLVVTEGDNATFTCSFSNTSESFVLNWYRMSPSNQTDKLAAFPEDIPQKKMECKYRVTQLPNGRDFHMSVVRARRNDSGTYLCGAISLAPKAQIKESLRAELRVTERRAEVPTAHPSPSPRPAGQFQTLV

[8] = target: T8, human PD-1 ECD-Fc chimeric construct 18 (human, UniProt Q15116 21-170)
T8 construct: not shown: human IgG1 Fc, residues P101-K330
T8 chain: T1 chain with T100F, T107S, F108L, S109A, R110P

[9] = target: T9, human PD-1 ECD-Fc chimeric construct 2 (human, UniProt Q15116 21-170)
T9 construct: not shown: human IgG1 Fc, residues P101-K330
T9 chain: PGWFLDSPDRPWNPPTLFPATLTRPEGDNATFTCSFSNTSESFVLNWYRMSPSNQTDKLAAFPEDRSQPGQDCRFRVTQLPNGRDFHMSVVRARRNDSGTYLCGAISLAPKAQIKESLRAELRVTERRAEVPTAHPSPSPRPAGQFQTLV

[10] = target: T10, human PD-1 ECD-Fc chimeric construct 20 (human, UniProt Q15116 21-170)
T10 construct: printed run together as I134VK135V; not shown: human IgG1 Fc, residues P101-K330
T10 chain: T1 chain with Y102L, L105A, K111S, A112D, Q113K, I114V, K115V

[11] = target: T11, human PD-1 ECD-Fc chimeric construct 11 (human, UniProt Q15116 21-170)
T11 construct: printed run together as P83IE84R; not shown: human IgG1 Fc, residues P101-K330
T11 chain: T7 chain with A61G, F62I, P63I, E64R, D65N, M71Q, E72D, K74R, Y75F

[12] = target: T12, human PD-1 ECD-Fc chimeric construct 17 (human, UniProt Q15116 21-170)
T12 construct: not shown: human IgG1 Fc, residues P101-K330
T12 chain: T2 chain with K87H, E89S, I90V, T100F

[13] = target: T13, human PD-1 ECD-Fc chimeric construct 4 (human, UniProt Q15116 21-170)
T13 construct: not shown: human IgG1 Fc, residues P101-K330
T13 chain: T4 chain with E26A, D28S, N29S, T33I, S35N, I36F, S39T, L41E, E42S, N44V

[14] = target: T14, human PD-1 ECD-Fc chimeric construct 21 (human, UniProt Q15116 21-170)
T14 construct: printed run together as I134VK135V; not shown: human IgG1 Fc, residues P101-K330
T14 chain: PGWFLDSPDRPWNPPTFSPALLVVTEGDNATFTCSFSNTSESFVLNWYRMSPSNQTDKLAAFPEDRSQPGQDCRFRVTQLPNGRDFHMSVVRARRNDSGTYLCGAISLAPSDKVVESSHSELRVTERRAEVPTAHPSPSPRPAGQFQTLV

KD mutant/KD wild-type [1]: 0.8 ratio | KD mutant/KD wild-type [2]: 0.7 ratio | KD mutant/KD wild-type [3]: 1.6 ratio | KD mutant/KD wild-type [4]: 0.8 ratio | KD mutant/KD wild-type [5]: 0.4 ratio | KD mutant/KD wild-type [6]: 1.5 ratio | KD mutant/KD wild-type [7]: 0.6 ratio | KD mutant/KD wild-type [8]: 1.5 ratio | KD mutant/KD wild-type [9]: 1 ratio | KD mutant/KD wild-type [10]: 0.6 ratio | KD mutant/KD wild-type [11]: 0.8 ratio | KD mutant/KD wild-type [12]: 0.7 ratio | KD mutant/KD wild-type [13]: 0.6 ratio | KD mutant/KD wild-type [14]: 0.5 ratio
B1: 13112.15380 Fab (Fab, V domains shown)
VH: EVQLLESGGGLVQPGGSLRLSCAASGFTFSSYNMFWVRQAPGKGLEFVAEISGSNTGSRTWYAPAVKGRATISRDNSKNTLYLQMNSLRAEDTAVYYCAKSIYGGYCAGGYSCGVGLIDAWGQGTLVTVSS
VL: SYELTQDPAVSVALGQTVRITCSGGSSDYYGWFQQKPGQAPVTVIYYNNKRPSDIPDRFSGSSSGNTASLTITGAQAEDEADYYCGNADSSVGVFGSGTKVTVL

binding result [1]: no binding (tested: 1 nM to 50 nM) | KD mutant/KD wild-type [2]: 0.4 ratio | binding result [3]: no binding (tested: 1 nM to 50 nM) | KD mutant/KD wild-type [4]: 0.2 ratio | KD mutant/KD wild-type [5]: 0.6 ratio | KD mutant/KD wild-type [6]: 1 ratio | KD mutant/KD wild-type [7]: 0.6 ratio | KD mutant/KD wild-type [8]: 4.6 ratio | KD mutant/KD wild-type [9]: 0.7 ratio | binding result [10]: no binding (tested: 1 nM to 50 nM) | KD mutant/KD wild-type [11]: 5.4 ratio | KD mutant/KD wild-type [12]: 0.5 ratio | KD mutant/KD wild-type [13]: 0.6 ratio | binding result [14]: no binding (tested: 1 nM to 50 nM)
B2: 12865.17150 Fab (Fab, V domains shown)
VH: EVQLLESGGGLVQPGGSLRLSCAASGFDFSDHGMQWVRQAPGKGLEYVGVIDTTGRYTYYAPAVKGRATISRDNSKNTLYLQMNSLRAEDTAVYYCAKTTCVGGYLCNTVGSIDAWGQGTLVTVSS
VL: SYELTQDPAVSVALGQTVRITCSGGGSSSYYGWYQQKPGQAPVTVIYDDTNRPSGIPDRFSGSSSGNTASLTITGAQAEDEADYYCGGYEGSSHAGIFGSGTKVTVL
notes: monomeric Fab fragment

KD mutant/KD wild-type [1]: 175 ratio | KD mutant/KD wild-type [2]: 3.6 ratio | KD mutant/KD wild-type [3]: 6.4 ratio | KD mutant/KD wild-type [4]: 7.1 ratio | KD mutant/KD wild-type [5]: 1.2 ratio | KD mutant/KD wild-type [6]: 1.7 ratio | KD mutant/KD wild-type [7]: 2.2 ratio | KD mutant/KD wild-type [8]: 3.8 ratio | KD mutant/KD wild-type [9]: 2.3 ratio | binding result [10]: no binding (tested: 1 nM to 50 nM) | KD mutant/KD wild-type [11]: 17.7 ratio | KD mutant/KD wild-type [12]: 0.2 ratio | KD mutant/KD wild-type [13]: 0.3 ratio | binding result [14]: no binding (tested: 1 nM to 50 nM)
B3: 12819.17149 Fab (Fab, V domains shown)
VH: EVQLLESGGGLVQPGGSLRLSCAASGFTFTRYDMVWVRQAPGKGLEWVAGIGDSNKMTRYAPAVKGRATISRDNSKNTLYLQMNSLRAEDTAVYYCAKGSCIACWDEAGRIDAWGQGTLVTVSS
VL: SYELTQDPAVSVALGQTVRITCSGGGSYDGSSYYGWYQQKPGQAPVTVIYNNNNRPSDIPDRFSGSSSGNTASLTITGAQAEDEADYYCGSYDRPETNSDYVGMFGSGTKVTVL
notes: monomeric Fab fragment
